Test results reported in patent US12729239B2, “Anti-CEACAM5 antibodies and conjugates and uses thereof” (Merck Patent GmbH, priority 2020, dated 2026).

Tests used:
MDA-MB-231 = test: Viability assay (Cell Titer-Glo), MDA-MB-231; assay type: cell-based; conditions: Homo sapiens, read-out: Maximal effect compared to untreated controls at the highest tested concentration
Method: Cytotoxicity effects of the ADC on the cancer cell lines were measured by cell viability assays. Cells were seeded in a volume of 90 μL in 96-well plates the day before treatment. Test compounds (ADCs or free payloads) were formulated at 10-fold the starting concentration in cell culture medium. Test compounds were serial diluted (1:4) and 10 μL of each dilution was added to the cells in triplicates. Plates were cultured at 37° C. in a CO2 incubator for six days. For cell viability measurement, Cell Titer-Glo® reagent (Promega™ Corp, Madison, WI) was added to each well, and plates processed according to the manufacturer's instructions. Luminescence signals were measured using a Varioskan plate reader (Thermo Fisher). Luminescence readings were converted to % viability relative to untreated cells. Data was fitted with non-linear regression analysis, using log (inhibitor) vs. response, variable slope, 4-parameter fit equation using GraphPad Prism. Data is shown as % relative cell viability vs. molar compound concentration, error bars indicating standard deviation (SD) of triplicates. Geometric mean values of IC50s derived from multiple experiments were calculated.

[1] = in vivo; cited from earlier work
[2] = in vivo; cited from earlier work; remark: listed apart in the source
[3] = test system: CEACAM5 from Macaca fascicularis; conditions: cited from earlier work
[4] = biological target: T1, CEACAM-5 epitope in FFPE tissues/cells (Homo sapiens, UniProt P06731); test: IHC staining on FFPE cancer cell lines versus CEACAM5 mRNA expression; assay type: binding; conditions: 104 cancer cell lines, CCLE dataset
T1 construct: formaldehyde fixed paraffin embedded (FFPE) cancer cell line microarrays (CMAs) and human tumor tissues; endogenous in cells; host or cells: 104 FFPE cancer cell lines (microarray)
T1 sequence (P06731 35-676): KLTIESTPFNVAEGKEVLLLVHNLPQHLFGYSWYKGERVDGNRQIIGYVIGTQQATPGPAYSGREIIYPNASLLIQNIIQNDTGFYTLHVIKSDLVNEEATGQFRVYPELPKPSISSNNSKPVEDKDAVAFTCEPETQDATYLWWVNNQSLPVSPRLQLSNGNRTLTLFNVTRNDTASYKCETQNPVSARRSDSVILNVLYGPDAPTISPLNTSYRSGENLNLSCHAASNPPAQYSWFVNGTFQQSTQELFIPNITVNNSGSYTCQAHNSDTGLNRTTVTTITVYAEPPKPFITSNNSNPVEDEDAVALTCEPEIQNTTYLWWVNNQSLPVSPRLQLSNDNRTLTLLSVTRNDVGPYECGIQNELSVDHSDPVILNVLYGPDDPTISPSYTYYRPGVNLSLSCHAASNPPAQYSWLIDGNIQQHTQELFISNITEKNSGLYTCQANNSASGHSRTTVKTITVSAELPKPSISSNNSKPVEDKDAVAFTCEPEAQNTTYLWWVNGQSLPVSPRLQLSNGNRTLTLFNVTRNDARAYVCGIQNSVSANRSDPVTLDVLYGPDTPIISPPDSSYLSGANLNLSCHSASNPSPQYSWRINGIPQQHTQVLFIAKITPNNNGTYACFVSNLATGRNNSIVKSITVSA
Method: For the IHC staining with the anti-CEACAM-5 antibody rb8G4, sections of 4 μm from formaldehyde fixed paraffin embedded (FFPE) cancer cell line microarrays (CMAs) and human tumor tissues were mounted on charged slides (SuperFrost Ultra Plus, Thermo Fisher Scientific or TOMO, Matsunami). The staining procedure was performed using a Discovery XT (Roche Diagnostics) staining platform. Following deparaffinization, the sections were heated for epitope retrieval in Tris-EDTA buffer pH 8 (CC1, Roche Diagnostics). The sections were incubated with the primary monoclonal antibody rb8G4 diluted to 0.5 or 0.7 μg/ml in phosphate-buffered saline (PBS) or antibody diluent buffer (DCS). The clone DA1E (rabbit monoclonal IgG, NEB) served as isotype control antibody. The primary antibodies were followed by the HQ anti-rabbit IgG detection kit (Roche Diagnostics). […]
CMAs and the TMA with human organ tissue were stained and scanned with the NanoZoomer (Hamamatsu) with a resolution of 0.46 μm/pixel. […] The scans of the CMAs were analyzed with the image analysis software HALO (Indica Labs, USA). For the determination of the amount of antigen present, positive brown stained area was calculated as percent area of the viable tissue area. Staining (arbitrary units) is calculated as Antibody staining (AU)=% positive tissue area*Average optic density (OD ranges from 0 to 1) of the brown colour. […]

Chain of CEACAM5 from Macaca fascicularis (as listed by the source): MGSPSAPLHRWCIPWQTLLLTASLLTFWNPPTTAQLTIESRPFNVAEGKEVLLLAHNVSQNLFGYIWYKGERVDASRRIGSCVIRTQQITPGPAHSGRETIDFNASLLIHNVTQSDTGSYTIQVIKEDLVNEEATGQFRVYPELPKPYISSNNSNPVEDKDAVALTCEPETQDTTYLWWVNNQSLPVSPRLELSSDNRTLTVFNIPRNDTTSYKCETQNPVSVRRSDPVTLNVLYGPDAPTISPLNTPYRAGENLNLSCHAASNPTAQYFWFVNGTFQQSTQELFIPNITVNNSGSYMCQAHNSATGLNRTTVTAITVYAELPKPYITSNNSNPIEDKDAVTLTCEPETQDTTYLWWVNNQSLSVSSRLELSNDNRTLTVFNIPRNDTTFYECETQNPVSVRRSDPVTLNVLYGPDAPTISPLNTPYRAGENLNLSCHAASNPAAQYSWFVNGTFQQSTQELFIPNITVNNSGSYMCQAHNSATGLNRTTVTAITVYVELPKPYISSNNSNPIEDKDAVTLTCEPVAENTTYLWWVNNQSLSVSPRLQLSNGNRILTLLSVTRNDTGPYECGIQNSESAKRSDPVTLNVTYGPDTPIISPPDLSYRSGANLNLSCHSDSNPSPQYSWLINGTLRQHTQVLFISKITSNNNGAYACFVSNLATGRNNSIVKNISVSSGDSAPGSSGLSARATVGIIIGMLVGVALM

## CC[C@@]1(O)C(=O)OCc2c1cc1n(c2=O)Cc2c-1nc1cc(F)c(C)c3c1c2[C@@H](N)CC3 [PAYLOAD, (1S,9S)-1-Amino-9-ethyl-5-fluoro-1,2,3,9,12,15-hexahydro-9-hydroxy-4-methyl-10H,13H-benzo(de)pyrano(3′,4′:6,7)indolizino(1,2-b)quinoline-10,13-dione]
MDA-MB-231
  Emax: -92%

## Labetuzumab govitecan
[1]
  stability of the linker structure: significant instability

## SAR408701: Sanofi anti-CEACAM5 ADC: SAR408377 linked to DM4 via SPDB linker
[2]
  side effects: toxic side effects on several organs and tissues including the cornea of the eye

## hmn-14: known anti-CEACAM5 antibody as in labetuzumab govitecan; HC SEQ ID NO: 27, LC SEQ ID NO: 28
[3]
  cross-reactivity with CEACAM5 from Macaca fascicularis: not cross-reacting

B1: rb8G4: human/rabbit chimeric variant of mAb1; HC SEQ ID NO: 29, LC SEQ ID NO: 30 (antibody)
heavy: EVQLQESGPGLVKPSQTLSLTCTVSDGSVSRGGYYLTWIRQHPGKGLEWIGYIYYSGSTYFNPSLRSRVTMSVDTSKNQFSLKLSSVTAADTAVYYCARGIAVAPFDYWGQGTLVTVSSQPKAPSVFPLAPCCGDTPSSTVTLGCLVKGYLPEPVTVTWNSGTLTNGVRTFPSVRQSSGLYSLSSVVSVTSSSQPVTCNVAHPATNTKVDKTVAPSTCSKPTCPPPELLGGPSVFIFPPKPKDTLMISRTPEVTCVVVDVSEDDPEVQFTWYINNEQVRTARPPLREQQFNSTIRVVSTLPIAHEDWLRGKEFKCKVHNKALPAPIEKTISKARGQPLEPKVYTMGPPREELSSRSVSLTCMINGFYPSDISVEWEKNGKAEDNYKTTPAVLDSDGSYFLYSKLSVPTSEWQRGDVFTCSVMHEALHNHYTQKSISRSPGK
light: EIVLTQSPATLSVSPGERATLSCRTSQSVRSNLAWYQQKPGQAPRLLIYAASTRATGIPARFSGSGSGTEFTLTISSLQSEDFAVYYCQQYTNWPFTFGPGTKVDIKRDPVAPSVLLFPPSKEELTTGTATIVCVANKFYPSDITVTWKVDGTTQQSGIENSKTPQSPEDNTYSLSSTLSLTSAQYNSHSVYTCEVVQGSASPIVQSFNRGDC
modifications: HC of rb8G4; LC of rb8G4
[4]
  Pearson correlation coefficient of IHC staining signal with mRNA expression: 0.88
